From publication PMC5528842, “The mechanism of monomer transfer between two structurally distinct PrP oligomers” (PLoS ONE, 2017) come the findings set out here.

“And” between values parts separate entries of the source, which are not always exact repeats. Equal values may be shown once.

Series [1] concerns the molecule itself. Put plainly: […], sodium citrate 20 mM pH 4.0, […].
Series [2] deals with the molecule itself. Put plainly: static light scattering + SEC.

B1: Full-length Ovine PrP 23-234 (Ala-136, Arg-154, Gln-171 variant) (natural protein)
chain: not shown
notes: also called OvPrP; ARQ PrP
Broadly, the stoichiometry N is a count of units in the complex or per binding partner. As usually defined, the koff is the first-order rate constant of dissociation. B1: the “stoichiometry N” value in series [1] was 25 to 70 mer. Moreover, in series [2], the koff is 0.00403 s⁻¹ and 0.0038 s⁻¹ and 0.01 s⁻¹.
